We go through 1 molecule from PMC7510951 (Cancer research, 2020).

The target of the assay is T1, 6xHis-EYA2 ED (human EYA2 residues 253-538) (human, UniProt O00167 253-538).
T1 sequence (looked up): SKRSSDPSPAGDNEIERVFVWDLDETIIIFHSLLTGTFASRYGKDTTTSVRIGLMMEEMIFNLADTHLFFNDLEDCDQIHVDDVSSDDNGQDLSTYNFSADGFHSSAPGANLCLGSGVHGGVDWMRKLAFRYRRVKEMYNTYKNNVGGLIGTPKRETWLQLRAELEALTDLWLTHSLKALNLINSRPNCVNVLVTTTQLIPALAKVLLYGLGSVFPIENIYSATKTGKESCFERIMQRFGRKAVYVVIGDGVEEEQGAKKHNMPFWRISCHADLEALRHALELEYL
The assay can be described thus: AlphaScreen or HTRF.

B1: GST-SIX1 (human SIX1 residues 1-259) (domain or fragment, UniProt Q15475 1-259, looked up)
chain: MSMLPSFGFTQEQVACVCEVLQQGGNLERLGRFLWSLPACDHLHKNESVLKAKAVVAFHRGNFRELYKILESHQFSPHNHPKLQQLWLKAHYVEAEKLRGRPLGAVGKYRVRRKFPLPRTIWDGEETSYCFKEKSRGVLREWYAHNPYPSPREKRELAEATGLTTTQVSNWFKNRRQRDRAAEAKERENTENNNSSSNKQNQLSPLEGGKPLMSSSEEEFSPPQSPDQNSVLLLQGNMGHARSSNYSLPGLTASQPSHG
Take B1: the binding result is “binds”.
